# T1: Cnu (UniProt P64467 1-71)
# T1 sequence (looked up): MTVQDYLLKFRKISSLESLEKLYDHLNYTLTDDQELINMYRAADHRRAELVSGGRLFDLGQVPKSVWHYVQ
# Molecular target: T1, Cnu
# Test: fluorescence polarisation; tryptophan fluorescence anisotropy of Cnu, titrated with H-NS(1-59) at select temperatures (278 to 310 K); apparent dissociation constants from fits assuming a 1:1 binding equilibrium
# Conditions: both partners purified
binder,measurement,value
"H-NS_(1–59) (domain or fragment, UniProt P0ACF8 1-59, looked up) MSEALKILNNIRTLRAQARECTLETLEEMLEKLEVVVNERREEESAAAAEVEERTRKLQ","fold decrease of binding affinity, 310 K against 278 K",~5 fold

# From article PMC5464678 (The Journal of Physical Chemistry Letters, 2017)
